From patent US20250064958A1 (Eli Lilly, published 2025)

How the values were obtained:
human TfR ECD = biological target: T1, human TfR ECD (human, UniProt P02786 89-760); experiment: SPR, Biacore 8K, 37 C, TfR ECD immobilized on CM4 chip, TBP as analyte, 2-state binding model, n = 3
T1 construct: extracellular domain; also called human Transferrin Receptor 1 extracellular domain
Experimental: (§1) Target human and Cynomolgous TfR ECDs were immobilized on a CM4 chip (Cytiva P/N 29104989) using standard NHS-EDC amine coupling. The TfR binding proteins were prepared at a final concentration of 0.3, 0.1, 0.033, 0.01, 0.0033, 0.001, 0.00033, 0.0001 μM respectively by dilution of stock solution into running buffer.
(§2) Binding analysis was performed in a multi-cycle kinetics manner. Each analysis cycle consists of (1) injection of the lowest to highest concentration proteins over all Fc at 50 μL/min for 140 seconds followed by return to buffer flow for 400 seconds to monitor dissociation phase; (2) regeneration of chip surfaces with injection of 3M magnesium chloride, for 30 seconds at 100 μL/min over all cells; and (3) equilibration of chip surfaces with a 50 μL (30-sec) injection of HBS-EP+. Data were processed using standard double-referencing and fit to a 2-state binding model using Biacore 8K Evaluation software, to determine the association rate (kₒₙ, M⁻¹s⁻¹ units), dissociation rate (koff, s⁻¹ units), and Rₘₐₓ (RU units). The equilibrium dissociation constant (KD) is calculated from the relationship KD=koff/kₒₙ, and is in molar units.

Cynomolgous TfR ECD = biological target: T2, Cynomolgous TfR ECD (Cynomolgus); experiment: as above
T2 chain: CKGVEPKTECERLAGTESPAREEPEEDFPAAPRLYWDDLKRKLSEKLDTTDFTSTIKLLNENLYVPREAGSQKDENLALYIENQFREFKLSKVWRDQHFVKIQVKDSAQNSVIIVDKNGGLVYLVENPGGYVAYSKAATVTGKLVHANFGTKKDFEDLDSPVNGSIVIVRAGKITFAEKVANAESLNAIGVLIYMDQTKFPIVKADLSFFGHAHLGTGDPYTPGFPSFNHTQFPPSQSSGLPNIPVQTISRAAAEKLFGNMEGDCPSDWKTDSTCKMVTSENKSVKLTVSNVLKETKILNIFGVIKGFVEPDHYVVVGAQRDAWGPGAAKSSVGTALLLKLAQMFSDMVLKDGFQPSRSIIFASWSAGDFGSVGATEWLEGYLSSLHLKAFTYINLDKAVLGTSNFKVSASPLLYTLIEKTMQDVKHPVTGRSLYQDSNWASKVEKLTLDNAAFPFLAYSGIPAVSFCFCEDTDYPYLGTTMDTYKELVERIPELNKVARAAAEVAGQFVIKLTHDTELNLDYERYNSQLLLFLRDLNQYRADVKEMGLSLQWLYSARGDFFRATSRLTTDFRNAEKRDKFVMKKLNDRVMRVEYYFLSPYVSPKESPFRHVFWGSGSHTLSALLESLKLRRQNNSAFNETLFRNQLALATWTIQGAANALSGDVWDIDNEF
Experimental: as §1, §2

Kd (human TfR ECD): 154 nM
Kd (Cynomolgous TfR ECD): 300 nM
B1: TBP4 (One Arm Heteromab 1, A378C) (antibody, human IgG4 S228P, kappa, F234A L235A)
heavy: EVQLVESGGGLVKPGGSLRLSCVASGFTFSSYSMNWVRQAPGKGLEWVSSISSSSSYIYYADSVKGRFTISRDNAKNSLYLQMNSLRAEDTAVYYCARRHGYSNSDAFDNWGQGTLVTVSSASTKGPSVFPLAPCSRSTSESTAALGCLVKDYFPEPVTVSWNSGALTSGVHTFPAVLQSSGLYSLSSVVTVPSSSLGTKTYTCNVDHKPSNTKVDKRVESKYGPPCPPCPAPEAAGGPSVFLFPPKPKDTLMISRTPEVTCVVVDVSQEDPEVQFNWYVDGVEVHNAKTKPREEQFNSTYRVVSVLTVLHQDWLNGKEYKCKVSNKGLPSSIEKTISKAKGQPREPQVSTLPPSQEEMTKNQVSLMCLVYGFYPSDICVEWESNGQPENNYKTTPPVLDSDGSFFLYSVLTVDKSRWQEGNVFSCSVMHEALHNHYTQKSLSLSLG
light: DIQMTQSPSAMSASVGDRVTITCRASQGISHYLVWFQQKPGKVPKRLIYAASSLQSGVPSRFSGSGSGTEFTLTISSLQPEDFATYYCLQHNSYPWTFGQGTKVEIKRTVAAPSVFIFPPSDEQLKSGTASVVCLLNNFYPREAKVQWKVDNALQSGNSQESVTEQDSKDSTYSLSSTLTLSKADYEKHKVYACEVTHQGLSSPVTKSFNRGEC
chain: ESKYGPPCPPCPAPEAAGGPSVFLFPPKPKDTLMISRTPEVTCVVVDVSQEDPEVQFNWYVDGVEVHNAKTKPREEQFNSTYRVVSVLTVLHQDWLNGKEYKCKVSNKGLPSSIEKTISKAKGQPREPQVYTLPPSQGDMTKNQVQLTCLVKGFYPSDICVEWESNGQPENNYKTTPPVLDSDGSFFLASRLTVDKSRWQEGNVFSCSVMHEALHNHYTQKSLSLSLG
notes: One-arm heteromab, IgG4 PAA, monovalent for human TfR; also called OAH1
